The results in this text go back to patent publication CN113667018A.

The test addresses N-Ras蛋白 (UniProt P01111). In words: indirect ELISA; N-Ras coated at 5 ug/ml, fusion protein diluted 1:100 to 1:3200, anti-His-tag antibody then HRP goat anti-mouse IgG, OD450. Conditions: scale: dilution factor. (An ELISA detects its analyte on a solid surface through an enzyme-linked reagent.)
Sequence of UniProt P01111 (P01111 whole entry, the tested form may be a part): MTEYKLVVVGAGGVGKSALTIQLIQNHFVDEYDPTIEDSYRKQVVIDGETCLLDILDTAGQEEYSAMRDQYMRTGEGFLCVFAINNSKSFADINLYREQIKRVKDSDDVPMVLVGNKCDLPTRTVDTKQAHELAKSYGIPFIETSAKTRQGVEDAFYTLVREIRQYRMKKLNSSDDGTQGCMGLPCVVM

B1: BR2-抗p21Ras单链抗体融合蛋白 (scFv, V domains shown, not shown: small tags and cut ends)
VH: QVKLQESGEGLVKPGGSLKLSCAASGFTFSDYYMYWVRQTPEKRLEWVAIISDGGSYTYYPDSVKGRFTISRDNTKKNLYLQMSSLRSEDTAMYYCARDPHYSGSSRLFVNWGQGTTVTVSS
Molecule B1 returned a 结合效价 (ELISA titer) of 800.
